Values quoted from earlier work as cited in article PMC8197769 (Progress in retinal and eye research, 2020).
Read-outs that look alike come from different tables or passages of the source.

Legend:
[1] = test system: patients with geographic atrophy; details: ref Liao et al., 2020
[2] = test system: patients with paroxysmal nocturnal hemoglobinuria
drusen = details: intravitreal injection, preliminary studies; ref Chi et al., 2010
[3] = test system: patients with geographic atrophy; details: ref Holz et al., 2018
[4] = test system: patients with geographic atrophy; details: intravitreal; ref Gensler et al., 2018
[5] = test system: patients with geographic atrophy; details: ref Jaffe et al., 2020
[6] = intravitreal injection, phase I; ref NCT01255462
[7] = test system: patients with geographic atrophy; details: 5 mg monthly vs. sham, 150 patients; ref NCT01527500

pegcetacoplan
investigator-determined conversion to exudative AMD ([1]; every other month group (sham 1.2%)): 8.9% | investigator-determined conversion to exudative AMD ([1]; monthly group (sham 1.2%)): 20.9% | safety during prolonged and systemic clinical intervention ([2]; human, in vivo): acceptable safety profiles | efficacy in paroxysmal nocturnal hemoglobinuria ([2]; phase III, ref Apellis Pharmaceuticals, 2020, Castro et al.): showed efficacy

compstatin
effect on drusen (drusen): may cause drusen regression

lampalizumab: fragment of humanized monoclonal antibody, inhibits Factor D
phase III outcome for GA [3]: negative results

CO[C@H]1C[C@@H]2CC[C@@H](C)[C@@](O)(O2)C(=O)C(=O)N2CCCC[C@H]2C(=O)O[C@H]([C@H](C)C[C@@H]2CC[C@@H](O)[C@H](OC)C2)CC(=O)[C@H](C)/C=C(\C)[C@@H](O)[C@@H](OC)C(=O)[C@H](C)C[C@H](C)/C=C/C=C/C=C/1C [sirolimus]
efficacy for GA [4]: did not suggest efficacy for GA

avacincaptad pegol
endophthalmitis [5]: no cases of endophthalmitis

B1: tesidolumab: IgG1 antibody that prevents C5 cleavage (antibody, chains of the INN, looked up, V domains shown)
VH: EVQLVQSGAEVKKPGSSVKVSCKASGGTFSSYAISWVRQAPGQGLEWMGGIGPFFGTANYAQKFQGRVTITADESTSTAYMELSSLRSEDTAVYYCARDTPYFDYWGQGTLVTVSS
VL: SYELTQPLSVSVALGQTARITCSGDSIPNYYVYWYQQKPGQAPVLVIYDDSNRPSGIPERFSGSNSGNTATLTISRAQAGDEADYYCQSFDSSLNAEVFGGGTKLTVL
safety [6]: No significant safety events were seen | benefit for GA or vision [7]: No benefit
